Here are results for 12 variants from FireProtDB (doi:10.1110/ps.051838206).

B1: Azurin, P00282 (parent)
chain: MLRKLAAVSLLSLLSAPLLAAECSVDIQGNDQMQFNTNAITVDKSCKQFTVNLSHPGNLPKNVMGHNWVLSTAADMQGVVTDGMASGLDKDYLKPDDSRVIAHTKLIGSGEKDSVTFDVSKLKEGEQYMFFCTFPGHSALMKGTLTLK

The data set covers variants of B1. The note with it: Pseudomonas aeruginosa (strain ATCC 15692 / DSM 22644 / CIP 104116 / JCM 14847 / LMG 12228 / 1C / PRS 101 / PAO1), pH 7, 25 °C, GdnHCl, Tris-HCl 100 mM, reversible: Yes, structure 5AZU, whole UniProt chain shown.

Several values for one entry are separate records, joined by “and”; a condition that tells them apart may be missing. Equal values may be shown once.

Take MLRKLAAVSLLSLLSAPLLAAECSVDIQGNDQMQFNTNAVTVDKSCKQFTVNLSHPGNLPKNVMGHNWVLSTAADMQGVVTDGMASGLDKDYLKPDDSRVIAHTKLIGSGEKDSVTFDVSKLKEGEQYMFFCTFPGHSALMKGTLTLK [I40V]: the unfolding free energy is 5.59 kcal/mol and 12.9 kcal/mol (CD); 5.59 kcal/mol and 12.9 kcal/mol (Fluorescence).
On to MLRKLAAVSLLSLLSAPLLAAECSVDIQGNDQMQFNTNATTVDKSCKQFTVNLSHPGNLPKNVMGHNWVLSTAADMQGVVTDGMASGLDKDYLKPDDSRVIAHTKLIGSGEKDSVTFDVSKLKEGEQYMFFCTFPGHSALMKGTLTLK [I40T], for which the “ddG of mutation (higher = less stable)” value is, setting by setting: (CD) 2.39 kcal/mol and 1.91 kcal/mol; (Fluorescence) 2.39 kcal/mol and 1.91 kcal/mol.
Turning to MLRKLAAVSLLSLLSAPLLAAECSVDIQGNDQMQFNTNAATVDKSCKQFTVNLSHPGNLPKNVMGHNWVLSTAADMQGVVTDGMASGLDKDYLKPDDSRVIAHTKLIGSGEKDSVTFDVSKLKEGEQYMFFCTFPGHSALMKGTLTLK [I40A], where the note is “Fluorescence”, the “ddG of mutation (higher = less stable)” value was 1.55 kcal/mol and the unfolding free energy was 4.42 kcal/mol.
As for MLRKLAAVSLLSLLSAPLLAAECSVDIQGNDQMQFNTNAITVDKSCKQFTVNLSHPGNLPKNVMGHNWVLSTAADMQGVVTDGMASGLDKDYLKPDDSRVIAHTKLIGSGEKDSTTFDVSKLKEGEQYMFFCTFPGHSALMKGTLTLK [V115T], the unfolding free energy (CD) is 6.93 kcal/mol and 12.8 kcal/mol; the unfolding free energy (Fluorescence) was 6.93 kcal/mol and 12.8 kcal/mol.
As to MLRKLAAVSLLSLLSAPLLAAECSVDIQGNDQMQFNTNAITVDKSCKQFTVNLSHPGNLPKNVMGHNWVTSTAADMQGVVTDGMASGLDKDYLKPDDSRVIAHTKLIGSGEKDSVTFDVSKLKEGEQYMFFCTFPGHSALMKGTLTLK [L70T], where the note is “CD”, the “ddG of mutation (higher = less stable)” value was 2.34 kcal/mol and 2.15 kcal/mol; the unfolding free energy is 3.63 kcal/mol and 10.8 kcal/mol. For the same variant, for the setting “Fluorescence”, the “ddG of mutation (higher = less stable)” value was determined as 2.15 kcal/mol and the unfolding free energy is 10.8 kcal/mol.
In the case of MLRKLAAVSLLSLLSAPLLAAECSVDIQGNDQMQFNTNAITVDKSCKQFTVNLSHPGNLPKNVMGHNWVVSTAADMQGVVTDGMASGLDKDYLKPDDSRVIAHTKLIGSGEKDSVTFDVSKLKEGEQYMFFCTFPGHSALMKGTLTLK [L70V], for the setting “CD”, the “ddG of mutation (higher = less stable)” value was 0.36 kcal/mol and 0.24 kcal/mol; the unfolding free energy is 5.62 kcal/mol and 12.7 kcal/mol. Moreover, for the setting “Fluorescence”, the “ddG of mutation (higher = less stable)” value was 0.36 kcal/mol and 0.24 kcal/mol; the unfolding free energy was 5.62 kcal/mol and 12.7 kcal/mol.
Consider MLRKLAAVSLLSLLSAPLLAAECSVDIQGNDQMQFNTNAITVDKSCKQFTVNLSHPGNLPKNVMGHNWVLSTAADMQGVVTDGMASGLDKDYLKPDDSRVAAHTKLIGSGEKDSVTFDVSKLKEGEQYMFFCTFPGHSALMKGTLTLK [I101A], for which the “ddG of mutation (higher = less stable)” value was 2.39 kcal/mol (CD) and 2.39 kcal/mol (Fluorescence). The unfolding free energy reads like this: (CD) 3.59 kcal/mol; (Fluorescence) 3.59 kcal/mol.
With MLRKLAAVSLLSLLSAPLLAAECSVDIQGNDQMQFNTNAITVDKSCKQFTVNLSHPGNLPKNVMGHNWVLSTAADMQGVVTDGMASGLDKDYLKPDDSRVVAHTKLIGSGEKDSVTFDVSKLKEGEQYMFFCTFPGHSALMKGTLTLK [I101V], the unfolding free energy (CD) is 5.9 kcal/mol and 12.7 kcal/mol; the unfolding free energy (Fluorescence) is 5.9 kcal/mol and 12.7 kcal/mol.
As to MLRKLAAVSLLSLLSAPLLAAECSVDIQGNDQMQFNTNAITVDKSCKQFTVNLSHPGNLPKNVMGHNWVLSTAADMQGVVTDGMASGLDKDYLKPDDSRVTAHTKLIGSGEKDSVTFDVSKLKEGEQYMFFCTFPGHSALMKGTLTLK [I101T], for the setting “CD”, the “ddG of mutation (higher = less stable)” value is 2.51 kcal/mol and 3.35 kcal/mol; the unfolding free energy was 3.47 kcal/mol and 9.56 kcal/mol. Under “Fluorescence”, the “ddG of mutation (higher = less stable)” value was 2.51 kcal/mol and 3.35 kcal/mol; the unfolding free energy was 3.47 kcal/mol and 9.56 kcal/mol.
With MLRKLAAVSLLSLLSAPLLAAECSVDIQGNDQMQFNTNAITADKSCKQFTVNLSHPGNLPKNVMGHNWVLSTAADMQGVVTDGMASGLDKDYLKPDDSRVIAHTKLIGSGEKDSVTFDVSKLKEGEQYMFFCTFPGHSALMKGTLTLK [V42A], where the note is “CD”, the “ddG of mutation (higher = less stable)” value was determined as 1.43 kcal/mol and the unfolding free energy came out at 4.54 kcal/mol.
Regarding MLRKLAAVSLLSLLSAPLLAAECSVDIQGNDQMQFNTNAITTDKSCKQFTVNLSHPGNLPKNVMGHNWVLSTAADMQGVVTDGMASGLDKDYLKPDDSRVIAHTKLIGSGEKDSVTFDVSKLKEGEQYMFFCTFPGHSALMKGTLTLK [V42T], the unfolding free energy was 5.02 kcal/mol and 8.6 kcal/mol (CD); 5.02 kcal/mol and 8.6 kcal/mol (Fluorescence).
On to MLRKLAAVSLLSLLSAPLLAAECSVDIQGNDQMQFNTNAITVDKSCKQFTTNLSHPGNLPKNVMGHNWVLSTAADMQGVVTDGMASGLDKDYLKPDDSRVIAHTKLIGSGEKDSVTFDVSKLKEGEQYMFFCTFPGHSALMKGTLTLK [V51T], for which the unfolding free energy is 4.9 kcal/mol and 8.84 kcal/mol (CD); 4.9 kcal/mol and 8.84 kcal/mol (Fluorescence).
